Results: IntAct's records for PubMed 35512704

B1: Mothers against decapentaplegic homolog 4 (Homo sapiens), Q13485 (parent)
chain: MDNMSITNTPTSNDACLSIVHSLMCHRQGGESETFAKRAIESLVKKLKEKKDELDSLITAITTNGAHPSKCVTIQRTLDGRLQVAGRKGFPHVIYARLWRWPDLHKNELKHVKYCQYAFDLKCDSVCVNPYHYERVVSPGIDLSGLTLQSNAPSSMMVKDEYVHDFEGQPSLSTEGHSIQTIQHPPSNRASTETYSTPALLAPSESNATSTANFPNIPVASTSQPASILGGSHSEGLLQIASGPQPGQQQNGFTGQPATYHHNSTTTWTGSRTAPYTPNLPHHQNGHLQHHPPMPPHPGHYWPVHNELAFQPPISNHPAPEYWCSIAYFEMDVQVGETFKVPSSCPIVTVDGYVDPSGGDRFCLGQLSNVHRTEAIERARLHIGKGVQLECKGEGDVWVRCLSDHAVFVQSYYLDREAGRAPGDAVHKIYPSAYIKVFDLRQCHRQMQQQAATAQAAAAAQAAAVAGNIPGPGSVGGIAPAISLSAAAGIGVDDLRRLCILRMSFVKGWGPDYPRQSIKETPCWIEIHLHRALQLLDEVLHTMPIADPQPLD

Variants of: B1
Settings: with smad3_human SMAD3, P84022

Variant | effect of a mutation on the interaction
R361C | disrupting interaction strength

Variants of: B1
Settings: with agap2_human AGAP2, Q99490

Variant | effect of a mutation on the interaction
R361C | with no effect

Variants of: B1
Settings: with ajuba_human AJUBA

Variant | effect of a mutation on the interaction
R361C | with no effect

Variants of: B1
Settings: with akt1_human AKT1, P31749

Variant | effect of a mutation on the interaction
R361C | with no effect

Variants of: B1
Settings: with akts1_human AKT1S1, Q96B36

Variant | effect of a mutation on the interaction
R361C | with no effect

Variants of: B1
Settings: with akt3_human AKT3, Q9Y243

Variant | effect of a mutation on the interaction
R361C | with no effect

Variants of: B1
Settings: with alk_human ALK

Variant | effect of a mutation on the interaction
R361C | with no effect

Variants of: B1
Settings: with aph1a_human APH1A

Variant | effect of a mutation on the interaction
R361C | with no effect

Variants of: B1
Settings: with arc1a_human ARPC1A

Variant | effect of a mutation on the interaction
R361C | with no effect

Variants of: B1
Settings: with asxl1_human ASXL1, Q8IXJ9
asxl1_human ASXL1, Q8IXJ9, sequence (Q8IXJ9 whole entry): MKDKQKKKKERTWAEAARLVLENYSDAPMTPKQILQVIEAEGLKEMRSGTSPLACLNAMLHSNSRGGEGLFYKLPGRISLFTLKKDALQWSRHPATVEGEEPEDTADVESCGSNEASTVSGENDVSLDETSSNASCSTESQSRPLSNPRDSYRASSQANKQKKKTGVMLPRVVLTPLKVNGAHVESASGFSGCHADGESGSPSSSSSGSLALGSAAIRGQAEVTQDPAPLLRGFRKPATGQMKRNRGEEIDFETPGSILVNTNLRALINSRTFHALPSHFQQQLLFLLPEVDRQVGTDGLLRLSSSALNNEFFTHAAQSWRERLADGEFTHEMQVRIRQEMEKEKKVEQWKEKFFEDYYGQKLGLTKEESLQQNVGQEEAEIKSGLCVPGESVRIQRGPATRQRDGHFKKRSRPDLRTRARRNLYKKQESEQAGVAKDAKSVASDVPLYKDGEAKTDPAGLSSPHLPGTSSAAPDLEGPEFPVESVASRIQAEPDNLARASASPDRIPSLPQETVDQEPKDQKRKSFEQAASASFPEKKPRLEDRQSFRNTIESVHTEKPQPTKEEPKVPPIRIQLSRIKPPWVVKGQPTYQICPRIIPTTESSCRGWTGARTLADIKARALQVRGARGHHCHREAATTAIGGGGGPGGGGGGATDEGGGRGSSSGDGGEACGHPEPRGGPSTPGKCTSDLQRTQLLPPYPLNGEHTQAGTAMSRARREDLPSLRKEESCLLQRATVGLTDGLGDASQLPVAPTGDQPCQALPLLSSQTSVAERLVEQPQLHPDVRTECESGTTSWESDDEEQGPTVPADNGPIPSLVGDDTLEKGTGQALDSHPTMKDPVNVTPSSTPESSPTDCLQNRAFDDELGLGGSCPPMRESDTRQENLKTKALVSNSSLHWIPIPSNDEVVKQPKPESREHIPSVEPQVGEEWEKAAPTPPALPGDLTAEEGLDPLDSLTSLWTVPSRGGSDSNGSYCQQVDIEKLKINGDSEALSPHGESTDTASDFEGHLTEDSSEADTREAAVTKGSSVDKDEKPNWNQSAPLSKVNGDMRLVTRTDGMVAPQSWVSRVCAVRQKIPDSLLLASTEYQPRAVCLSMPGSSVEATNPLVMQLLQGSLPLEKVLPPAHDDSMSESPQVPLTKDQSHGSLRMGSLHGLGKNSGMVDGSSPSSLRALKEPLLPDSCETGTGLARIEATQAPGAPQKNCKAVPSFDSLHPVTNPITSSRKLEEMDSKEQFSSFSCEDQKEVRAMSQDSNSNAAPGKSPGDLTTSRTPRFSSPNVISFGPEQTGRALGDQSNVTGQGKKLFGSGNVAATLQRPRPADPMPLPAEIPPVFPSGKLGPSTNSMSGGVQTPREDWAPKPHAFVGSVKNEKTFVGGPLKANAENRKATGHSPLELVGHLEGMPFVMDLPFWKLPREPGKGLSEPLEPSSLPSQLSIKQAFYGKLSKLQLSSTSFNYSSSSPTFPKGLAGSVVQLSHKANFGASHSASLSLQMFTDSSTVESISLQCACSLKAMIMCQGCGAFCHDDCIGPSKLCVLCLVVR

Variant | effect of a mutation on the interaction
R361C | with no effect

Variants of: B1
Settings: with bakor_human ATG14, Q6ZNE5

Variant | effect of a mutation on the interaction
R361C | with no effect

Variants of: B1
Settings: with atpb_human ATP5F1B

Variant | effect of a mutation on the interaction
R361C | with no effect

Variants of: B1
Settings: with atrx_human ATRX

Variant | effect of a mutation on the interaction
R361C | with no effect

Variants of: B1
Settings: with aurkb_human AURKB

Variant | effect of a mutation on the interaction
R361C | with no effect

Variants of: B1
Settings: with ufo_human AXL

Variant | effect of a mutation on the interaction
R361C | with no effect

Variants of: B1
Settings: with za2g_human AZGP1, P25311

Variant | effect of a mutation on the interaction
R361C | with no effect

Variants of: B1
Settings: with b2mg_human B2M

Variant | effect of a mutation on the interaction
R361C | with no effect

Variants of: B1
Settings: with bap1_human BAP1, Q92560
bap1_human BAP1, Q92560, sequence (Q92560 whole entry): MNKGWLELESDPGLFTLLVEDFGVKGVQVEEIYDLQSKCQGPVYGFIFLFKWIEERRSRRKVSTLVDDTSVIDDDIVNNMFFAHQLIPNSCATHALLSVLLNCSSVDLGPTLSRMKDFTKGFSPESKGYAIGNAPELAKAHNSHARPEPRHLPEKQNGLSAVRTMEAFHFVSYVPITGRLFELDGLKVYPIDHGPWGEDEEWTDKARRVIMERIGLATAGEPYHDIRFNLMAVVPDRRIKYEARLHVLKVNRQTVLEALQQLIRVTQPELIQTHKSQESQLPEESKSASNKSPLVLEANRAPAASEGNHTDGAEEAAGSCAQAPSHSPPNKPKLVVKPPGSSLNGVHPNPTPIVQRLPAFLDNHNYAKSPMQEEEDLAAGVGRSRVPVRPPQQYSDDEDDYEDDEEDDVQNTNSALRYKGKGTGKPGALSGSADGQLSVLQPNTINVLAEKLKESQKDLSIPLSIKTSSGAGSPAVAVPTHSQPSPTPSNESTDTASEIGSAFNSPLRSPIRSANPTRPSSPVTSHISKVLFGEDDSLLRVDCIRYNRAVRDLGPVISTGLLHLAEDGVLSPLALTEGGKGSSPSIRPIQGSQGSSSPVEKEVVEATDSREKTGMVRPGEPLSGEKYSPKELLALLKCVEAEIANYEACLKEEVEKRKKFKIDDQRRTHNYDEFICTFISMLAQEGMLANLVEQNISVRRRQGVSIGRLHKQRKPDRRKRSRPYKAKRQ

Variant | effect of a mutation on the interaction
R361C | with no effect

Variants of: B1
Settings: with becn1_human BECN1, Q14457

Variant | effect of a mutation on the interaction
R361C | with no effect

Variants of: B1
Settings: with birc2_human BIRC2, Q13490
birc2_human BIRC2, Q13490, sequence (Q13490 whole entry): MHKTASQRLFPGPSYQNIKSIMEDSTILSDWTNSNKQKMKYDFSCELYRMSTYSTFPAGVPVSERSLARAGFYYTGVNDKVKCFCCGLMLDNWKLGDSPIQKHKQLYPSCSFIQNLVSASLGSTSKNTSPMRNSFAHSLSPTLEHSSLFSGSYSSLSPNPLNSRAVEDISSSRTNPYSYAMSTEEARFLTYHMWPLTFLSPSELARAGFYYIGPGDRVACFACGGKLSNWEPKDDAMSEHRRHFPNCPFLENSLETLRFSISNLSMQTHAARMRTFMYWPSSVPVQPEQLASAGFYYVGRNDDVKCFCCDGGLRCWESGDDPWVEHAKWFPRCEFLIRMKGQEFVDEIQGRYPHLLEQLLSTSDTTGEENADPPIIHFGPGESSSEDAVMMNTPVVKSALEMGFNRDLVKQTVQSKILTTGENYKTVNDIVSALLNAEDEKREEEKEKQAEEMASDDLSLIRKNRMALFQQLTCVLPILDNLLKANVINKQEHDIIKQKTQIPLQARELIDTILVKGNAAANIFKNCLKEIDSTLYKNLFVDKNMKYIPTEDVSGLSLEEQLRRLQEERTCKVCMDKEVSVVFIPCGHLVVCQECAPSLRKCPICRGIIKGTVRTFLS

Variant | effect of a mutation on the interaction
R361C | with no effect

Variants of: B1
Settings: with braf_human BRAF

Variant | effect of a mutation on the interaction
R361C | with no effect

Variants of: B1
Settings: with cbl_human CBL

Variant | effect of a mutation on the interaction
R361C | with no effect

Variants of: B1
Settings: with cblb_human CBLB

Variant | effect of a mutation on the interaction
R361C | with no effect

Variants of: B1
Settings: with ccnd1_human CCND1, P24385

Variant | effect of a mutation on the interaction
R361C | with no effect

Variants of: B1
Settings: with ccnd2_human CCND2, P30279

Variant | effect of a mutation on the interaction
R361C | with no effect

Variants of: B1
Settings: with ccnd3_human CCND3, P30281

Variant | effect of a mutation on the interaction
R361C | with no effect

Variants of: B1
Settings: with cd44_human CD44, P16070

Variant | effect of a mutation on the interaction
R361C | with no effect

Variants of: B1
Settings: with cd79b_human CD79B

Variant | effect of a mutation on the interaction
R361C | with no effect

Variants of: B1
Settings: with cdk6_human CDK6, Q00534

Variant | effect of a mutation on the interaction
R361C | with no effect

Variants of: B1
Settings: with cdn2b_human CDKN2B

Variant | effect of a mutation on the interaction
R361C | with no effect

Variants of: B1
Settings: with cdn2c_human CDKN2C

Variant | effect of a mutation on the interaction
R361C | with no effect

Variants of: B1
Settings: with cebpa_human CEBPA

Variant | effect of a mutation on the interaction
R361C | with no effect

Variants of: B1
Settings: with ch3l1_human CHI3L1, P36222

Variant | effect of a mutation on the interaction
R361C | with no effect

Variants of: B1
Settings: with ctna1_human CTNNA1, P35221

Variant | effect of a mutation on the interaction
R361C | with no effect

Variants of: B1
Settings: with ctnb1_human CTNNB1, P35222

Variant | effect of a mutation on the interaction
R361C | with no effect

Variants of: B1
Settings: with cul3_human CUL3, Q13618
cul3_human CUL3, Q13618, sequence (Q13618 whole entry): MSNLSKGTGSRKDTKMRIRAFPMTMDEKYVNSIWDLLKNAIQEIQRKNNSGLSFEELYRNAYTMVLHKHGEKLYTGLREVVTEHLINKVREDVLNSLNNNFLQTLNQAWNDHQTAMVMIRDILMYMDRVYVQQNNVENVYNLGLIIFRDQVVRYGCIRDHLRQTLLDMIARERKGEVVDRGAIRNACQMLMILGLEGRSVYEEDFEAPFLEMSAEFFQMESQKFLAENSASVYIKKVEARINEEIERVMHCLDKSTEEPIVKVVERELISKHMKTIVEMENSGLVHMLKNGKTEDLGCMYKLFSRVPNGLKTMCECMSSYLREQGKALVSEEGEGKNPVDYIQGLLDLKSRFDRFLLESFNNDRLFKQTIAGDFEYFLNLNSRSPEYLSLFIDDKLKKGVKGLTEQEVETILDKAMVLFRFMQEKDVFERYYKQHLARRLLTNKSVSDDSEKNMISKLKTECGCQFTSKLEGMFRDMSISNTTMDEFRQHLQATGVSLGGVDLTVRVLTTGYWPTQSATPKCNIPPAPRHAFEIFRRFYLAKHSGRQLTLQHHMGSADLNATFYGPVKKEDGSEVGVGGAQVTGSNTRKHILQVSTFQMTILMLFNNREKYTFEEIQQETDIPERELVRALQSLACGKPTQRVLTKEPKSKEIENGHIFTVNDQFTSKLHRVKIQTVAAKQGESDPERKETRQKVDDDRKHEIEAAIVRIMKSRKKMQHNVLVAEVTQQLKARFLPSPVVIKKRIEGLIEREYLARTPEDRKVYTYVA

Variant | effect of a mutation on the interaction
R361C | with no effect

Variants of: B1
Settings: with dicer_human DICER1, Q9UPY3

Variant | effect of a mutation on the interaction
R361C | with no effect

Variants of: B1
Settings: with duox2_human DUOX2, Q9NRD8

Variant | effect of a mutation on the interaction
R361C | with no effect

Variants of: B1
Settings: with e2f1_human E2F1, Q01094
e2f1_human E2F1, Q01094, sequence (Q01094 whole entry): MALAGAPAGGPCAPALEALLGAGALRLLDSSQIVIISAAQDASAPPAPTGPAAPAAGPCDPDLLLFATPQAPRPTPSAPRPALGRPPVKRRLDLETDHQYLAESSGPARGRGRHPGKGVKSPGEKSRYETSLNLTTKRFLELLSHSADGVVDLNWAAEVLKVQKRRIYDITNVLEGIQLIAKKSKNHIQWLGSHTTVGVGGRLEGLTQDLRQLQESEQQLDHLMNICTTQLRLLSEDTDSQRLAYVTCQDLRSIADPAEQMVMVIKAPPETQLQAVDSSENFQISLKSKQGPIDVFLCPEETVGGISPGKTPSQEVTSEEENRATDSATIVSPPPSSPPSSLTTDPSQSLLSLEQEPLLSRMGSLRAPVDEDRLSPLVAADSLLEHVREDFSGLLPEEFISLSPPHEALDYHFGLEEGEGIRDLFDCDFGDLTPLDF

Variant | effect of a mutation on the interaction
R361C | with no effect

Variants of: B1
Settings: with e2f2_human E2F2, Q14209

Variant | effect of a mutation on the interaction
R361C | with no effect

Variants of: B1
Settings: with e2f4_human E2F4, Q16254

Variant | effect of a mutation on the interaction
R361C | with no effect

Variants of: B1
Settings: with e2f5_human E2F5, Q15329

Variant | effect of a mutation on the interaction
R361C | with no effect

Variants of: B1
Settings: with if4e_human EIF4E

Variant | effect of a mutation on the interaction
R361C | with no effect

Variants of: B1
Settings: with epha7_human EPHA7, Q15375

Variant | effect of a mutation on the interaction
R361C | with no effect

Variants of: B1
Settings: with ephb1_human EPHB1, P54762

Variant | effect of a mutation on the interaction
R361C | with no effect

Variants of: B1
Settings: with erbb4_human ERBB4, Q15303

Variant | effect of a mutation on the interaction
R361C | with no effect

Variants of: B1
Settings: with esr1_human ESR1, P03372

Variant | effect of a mutation on the interaction
R361C | with no effect

Variants of: B1
Settings: with etv1_human ETV1, P50549

Variant | effect of a mutation on the interaction
R361C | with no effect

Variants of: B1
Settings: with fadd_human FADD

Variant | effect of a mutation on the interaction
R361C | with no effect

Variants of: B1
Settings: with facd2_human FANCD2, Q9BXW9

Variant | effect of a mutation on the interaction
R361C | with no effect

Variants of: B1
Settings: with fgf19_human FGF19, O95750
fgf19_human FGF19, O95750, sequence (O95750 whole entry): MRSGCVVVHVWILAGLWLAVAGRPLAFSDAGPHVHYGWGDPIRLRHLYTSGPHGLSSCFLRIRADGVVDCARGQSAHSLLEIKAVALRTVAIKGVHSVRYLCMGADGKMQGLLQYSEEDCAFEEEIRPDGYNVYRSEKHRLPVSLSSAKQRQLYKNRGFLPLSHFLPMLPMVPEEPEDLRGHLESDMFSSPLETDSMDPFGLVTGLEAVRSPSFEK

Variant | effect of a mutation on the interaction
R361C | with no effect

Variants of: B1
Settings: with fgfr3_human FGFR3, P22607

Variant | effect of a mutation on the interaction
R361C | with no effect

Variants of: B1
Settings: with fgfr4_human FGFR4, P22455

Variant | effect of a mutation on the interaction
R361C | with no effect

Variants of: B1
Settings: with foxo1_human FOXO1, Q12778

Variant | effect of a mutation on the interaction
R361C | with no effect

Variants of: B1
Settings: with foxo3_human FOXO3, O43524

Variant | effect of a mutation on the interaction
R361C | with no effect

Variants of: B1
Settings: with gbra6_human GABRA6, Q16445

Variant | effect of a mutation on the interaction
R361C | with no effect

Variants of: B1
Settings: with gata2_human GATA2, P23769
gata2_human GATA2, P23769, sequence (P23769 whole entry): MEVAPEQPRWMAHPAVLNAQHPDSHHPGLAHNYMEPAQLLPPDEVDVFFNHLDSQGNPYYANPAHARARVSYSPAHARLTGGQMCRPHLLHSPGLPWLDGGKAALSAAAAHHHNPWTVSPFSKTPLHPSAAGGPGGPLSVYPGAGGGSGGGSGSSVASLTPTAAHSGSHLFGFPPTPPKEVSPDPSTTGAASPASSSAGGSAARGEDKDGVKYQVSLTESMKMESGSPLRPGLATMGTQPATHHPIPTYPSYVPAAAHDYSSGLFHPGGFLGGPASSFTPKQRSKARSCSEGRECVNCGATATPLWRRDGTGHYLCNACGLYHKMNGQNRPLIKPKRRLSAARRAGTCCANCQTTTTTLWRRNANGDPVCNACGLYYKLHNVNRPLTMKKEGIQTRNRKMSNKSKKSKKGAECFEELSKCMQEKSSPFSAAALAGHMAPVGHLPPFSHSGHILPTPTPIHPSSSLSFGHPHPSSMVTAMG

Variant | effect of a mutation on the interaction
R361C | with no effect

Variants of: B1
Settings: with gata3_human GATA3, P23771

Variant | effect of a mutation on the interaction
R361C | with no effect

Variants of: B1
Settings: with gna11_human GNA11, P29992

Variant | effect of a mutation on the interaction
R361C | with no effect

Variants of: B1
Settings: with gnaq_human GNAQ

Variant | effect of a mutation on the interaction
R361C | with no effect
